Data reported in paper PMC2935386, “Dissecting the Relation between a Nuclear Receptor and GATA: Binding Affinity Studies of Thyroid Hormone Receptor and GATA2 on TSHβ Promoter”.

Legend:
[1] = target: T1, TRβ1 DBD-LBD (TR DL, TRβ1ΔAB) (human, UniProt P10828 102-461); assay: fluorescence anisotropy; no T3; Hill n 1±0.1; Fluorescence anisotropy: 10 nM DNA, 20 mM Hepes pH 8.0, 50 mM NaCl, 1 mM MgCl2, 3 mM DTT, 5% glycerol, 10°C; agarose gel 1.3% in 0.5x TBE; details: protein: recombinant; tags: His (pET28a); chain copies: 2; label: 5' fluorescein (FITC) on forward strand; blunt
T1 sequence: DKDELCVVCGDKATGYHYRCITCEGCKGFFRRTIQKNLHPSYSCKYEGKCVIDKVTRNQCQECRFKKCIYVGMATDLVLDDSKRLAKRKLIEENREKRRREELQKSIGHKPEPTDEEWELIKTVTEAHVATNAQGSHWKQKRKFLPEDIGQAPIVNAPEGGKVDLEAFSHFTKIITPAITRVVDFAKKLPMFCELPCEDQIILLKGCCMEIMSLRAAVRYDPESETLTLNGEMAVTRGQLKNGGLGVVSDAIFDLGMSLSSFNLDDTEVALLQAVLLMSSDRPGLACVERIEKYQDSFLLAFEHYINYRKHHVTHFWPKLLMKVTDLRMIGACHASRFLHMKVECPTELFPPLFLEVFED

[2] = target: T1, TRβ1 DBD-LBD (TR DL, TRβ1ΔAB); assay: fluorescence anisotropy; T3; Hill n 2±0.4; Fluorescence anisotropy: 10 nM DNA, 20 mM Hepes pH 8.0, 50 mM NaCl, 1 mM MgCl2, 3 mM DTT, 5% glycerol, 10°C; agarose gel 1.3% in 0.5x TBE; details: protein: recombinant; tags: His (pET28a); chain copies: 2; label: 5' fluorescein (FITC) on forward strand; blunt
[3] = target: T1, TRβ1 DBD-LBD (TR DL, TRβ1ΔAB); assay: fluorescence anisotropy; no T3; Hill n 3.5±0.1; Fluorescence anisotropy: 10 nM DNA, 20 mM Hepes pH 8.0, 50 mM NaCl, 1 mM MgCl2, 3 mM DTT, 5% glycerol, 10°C; agarose gel 1.3% in 0.5x TBE; details: protein: recombinant; tags: His (pET28a); chain copies: 2; label: 5' fluorescein (FITC) on forward strand; blunt
[4] = target: T1, TRβ1 DBD-LBD (TR DL, TRβ1ΔAB); assay: fluorescence anisotropy; no T3; up to 10000 nM; Fluorescence anisotropy: 10 nM DNA, 20 mM Hepes pH 8.0, 50 mM NaCl, 1 mM MgCl2, 3 mM DTT, 5% glycerol, 10°C; agarose gel 1.3% in 0.5x TBE; details: protein: recombinant; tags: His (pET28a); chain copies: 2; label: 5' fluorescein (FITC) on forward strand; blunt
TRβ1 DBD (TRβ1ΔAB/EF) = target: T2, TRβ1 DBD (TRβ1ΔAB/EF) (human, UniProt P10828 102-198); assay: gel filtration + agarose EMSA; 100 uM protein; DNA label not stated; Fluorescence anisotropy: 10 nM DNA, 20 mM Hepes pH 8.0, 50 mM NaCl, 1 mM MgCl2, 3 mM DTT, 5% glycerol, 10°C; agarose gel 1.3% in 0.5x TBE; details: protein: recombinant; tags: His (pET28a); label: 5' fluorescein (FITC) on forward strand; blunt
T2 sequence: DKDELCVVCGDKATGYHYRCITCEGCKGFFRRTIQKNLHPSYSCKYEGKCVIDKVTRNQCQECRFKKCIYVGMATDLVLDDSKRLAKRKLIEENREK

GATA2-Zf [5] = target: T3, GATA2-Zf (UniProt P23769 291-412); assay: fluorescence anisotropy; Hill n 3.1±0.4; Fluorescence anisotropy: 10 nM DNA, 20 mM Hepes pH 8.0, 50 mM NaCl, 1 mM MgCl2, 3 mM DTT, 5% glycerol, 10°C; agarose gel 1.3% in 0.5x TBE; details: protein: recombinant; tags: His, thrombin treated; label: 5' fluorescein (FITC) on forward strand; blunt
GATA2-Zf [6] = target: T3, GATA2-Zf; assay: fluorescence anisotropy; Hill n 1.3±0.4; Fluorescence anisotropy: 10 nM DNA, 20 mM Hepes pH 8.0, 50 mM NaCl, 1 mM MgCl2, 3 mM DTT, 5% glycerol, 10°C; agarose gel 1.3% in 0.5x TBE; details: protein: recombinant; tags: His, thrombin treated; label: 5' fluorescein (FITC) on forward strand; blunt

T3 sequence (P23769 291-412): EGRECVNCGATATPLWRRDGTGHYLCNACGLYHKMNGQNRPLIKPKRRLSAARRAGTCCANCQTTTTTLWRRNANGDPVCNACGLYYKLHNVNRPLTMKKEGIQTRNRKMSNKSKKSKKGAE

B1: DR4 TRE (dsDNA)
DNA 1: AGTTCAGGTCACAGGAGGTCAGAG
DNA 2: CTCTGACCTCCTGTGACCTGAACT
Binder B1 has a Kd [1] of 2040 ± 266 nM and a Kd [2] of 1980 ± 295 nM.

B2: TSH NRE (dsDNA)
DNA 1: TGGGTCACCACAGCATCTGCTCACCAATGCAAAGT
DNA 2: ACTTTGCATTGGTGAGCAGATGCTGTGGTGACCCA
B2 was tested, and the Kd [3] was 316 ± 29 nM.

B3: TSH GATA-RE (dsDNA)
DNA 1: TCAATAGATGCTTTTCAGATAAGAA
DNA 2: TTCTTATCTGAAAAGCATCTATTGA
For B3, the binding result [4] was “no binding”, the binding result (TRβ1 DBD (TRβ1ΔAB/EF)) was “binds” and the Kd (GATA2-Zf [5]) was 689 ± 38.7 nM.

B4: GATA-RE (canonical) (dsDNA)
DNA 1: CACTTGATAACAGAAAGTGATAACTCT
DNA 2: AGAGTTATCACTTTCTGTTATCAAGTG
B4 was tested, and the binding result [4] was “no binding” and the Kd (GATA2-Zf [6]) was 14.9 ± 1.5 nM.
